The record followed here is patent US20220363763A1 (ABL BIO, published 2022).

One assay concerns the target T1, human PD-L1-Fc protein (human, UniProt Q9NZQ7 19-239).
T1 construct: Coated on ELISA plates; also called huPD-L1; not shown: Fc part
Put plainly: ELISA on coated human PD-L1-Fc. On the procedure:
To evaluate the antigen binding activity, the antibodies were subjected to ELISA test. Briefly, microtiter plates were coated with human PD-L1-Fc protein at 2 μg/ml in PBS, 100 μl/well at 4° C. overnight, then blocked with 100 μl/well of 5% BSA. 4-fold dilutions of humanized antibodies starting from 10 μg/ml were added to each well and incubated for 1-2 hours at RT. The plates were washed with PBS/Tween and then incubate with […] antibody conjugated with Horse Radish Peroxidase (HRP) for 1 hour at RT. After washing, the plates were developed with TMB substrate and analyzed by spectrophotometer at OD 450-630 nm.

In assay [1] the target is T2, human PD-L1 expressed on mammalian cells (human, UniProt Q9NZQ7 19-290).
T2 construct: whole, on cells; also called PDL1-CHOK1 cells; PDL1-Raji cells
Put plainly: cell-based binding on Raji-PDL1 cells (FACS by paragraph 328; the y axis of the sheet is labelled IL2 (ng/ml)); EC50 table has no unit, x axis Concentration (nM). On the procedure: To evaluate the antigen binding property, the antibodies were analyzed for its binding to mammalian expressed PD-L1 by FACS. Briefly, PDL1-Raji cells were firstly incubated with 5-fold serious diluted humanized antibodies starting at 2 µg/ml at RT for 1 hour. After wash by FACS buffer (PBS with 2% FBS), the Alexa 488-anti-human IgG antibody was added to each well and incubated at RT for 1 hour. The MFI of Alexa 488 was evaluated by FACSAriaIII.

Assay [2] addresses T3, human PD-L1 (construct not stated) (human, UniProt Q9NZQ7 19-239, limits assumed).
T3 construct: also called B7-H1 (PD-L1); PD-L1 protein
Put plainly: SPR Biacore, affinity ranking.

Assay [3] concerns the target T4, human LAG3 on cells (human, UniProt P18627 23-525).
T4 construct: whole, on cells; also called Jurkat-LAG3
T4 sequence (looked up): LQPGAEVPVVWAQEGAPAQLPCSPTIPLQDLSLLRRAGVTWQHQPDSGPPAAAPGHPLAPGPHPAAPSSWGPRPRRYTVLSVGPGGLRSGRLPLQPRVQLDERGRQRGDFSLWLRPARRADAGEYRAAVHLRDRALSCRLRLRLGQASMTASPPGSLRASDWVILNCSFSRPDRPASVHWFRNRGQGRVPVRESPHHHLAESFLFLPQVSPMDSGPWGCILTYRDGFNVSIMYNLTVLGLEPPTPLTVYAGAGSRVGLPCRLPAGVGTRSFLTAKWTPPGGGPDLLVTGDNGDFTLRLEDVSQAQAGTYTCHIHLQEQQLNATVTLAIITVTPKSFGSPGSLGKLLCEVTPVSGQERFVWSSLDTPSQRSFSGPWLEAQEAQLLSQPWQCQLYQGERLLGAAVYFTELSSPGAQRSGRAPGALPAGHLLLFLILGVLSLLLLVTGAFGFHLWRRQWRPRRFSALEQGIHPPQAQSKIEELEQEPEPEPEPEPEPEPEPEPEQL
Put plainly: flow cytometry on hLAG3-expressing Jurkat cells. On the procedure:
(§1) To further confirm affinity matured anti-LAG-3 antibodies could bind to cell-derived human LAG3, both inducible hLAG3 expressed Jurkat cells and activated PBMCs were used to test the binding capability of B3807b and B3810. In brief, Jurkat cells were resuspended in FACS buffer. Anti-LAG3 antibodies and isotype control were 4-fold serially diluted in FACS buffer with a dose ranging from 20 nM to 30 pM. The serially diluted antibodies were added to the cell suspension and incubated for 30 minutes on ice. Then after removal of unbound antibodies, cells were stained with anti-human IgG conjugated with Alexa Fluor 633 (Thermo, A21091). Fluorescence measurement was acquired on FACSCelesta flow cytometer and analyzed in Flowjo to determine the mean fluorescence intensities (MFI). To test anti-LAG3 antibodies' ability of binding to native human LAG3, PBMCs from health donor were stimulated with anti-CD3 (BD, 555336) and anti-CD28 (BD, 555725) both at a concentration of 1 ug/ml. Following 3 days' stimulation, cells were harvested and incubated with anti-LAG3 antibodies for 30 mins on ice. The cells were stained with anti-human CD4 and anti-human IgG. Analysis of antibodies binding to CD4+ cells were carried out on FACSCelesta flow cytometry. […] FIG. 31 is a graph showing the binding curve of anti-LAG3 antibodies.

Assay [4] deals with T5, recombinant his-tag human LAG3-ECD protein (human, UniProt P18627 23-450).
T5 construct: extracellular domain; not shown: his tag
T5 sequence (looked up): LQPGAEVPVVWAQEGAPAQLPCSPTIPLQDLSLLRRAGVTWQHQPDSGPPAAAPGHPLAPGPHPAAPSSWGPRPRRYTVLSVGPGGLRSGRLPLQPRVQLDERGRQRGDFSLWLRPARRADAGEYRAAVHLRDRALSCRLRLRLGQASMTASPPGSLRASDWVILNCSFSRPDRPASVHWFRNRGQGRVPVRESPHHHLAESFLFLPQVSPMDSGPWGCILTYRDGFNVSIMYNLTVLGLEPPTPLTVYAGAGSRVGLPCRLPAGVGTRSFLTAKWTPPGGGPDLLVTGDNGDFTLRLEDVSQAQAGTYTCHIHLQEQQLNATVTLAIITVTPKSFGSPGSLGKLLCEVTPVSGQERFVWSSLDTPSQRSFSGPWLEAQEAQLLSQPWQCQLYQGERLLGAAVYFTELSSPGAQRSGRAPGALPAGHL
Kind of assay: Biacore, antibody captured, His-tag human LAG3-ECD injected (procedure of Example 2.16(B)); column ka (1/Ms). On the procedure: (§2) The binding of B3807 to recombinant His-tag human LAG3-ECD protein was examined by Biacore T200 using a capture method. B3807 was captured using protein A which was immobilized on CM5 sensor chip. Serial concentrations of his-tag human LAG3-ECD protein (0-12 nM) were injected over capture antibodies at the flow rate of 30 μl/min. The dissociation phase was 900 s or 550 s.
(§3) B3807 was used in the following examples for further testing and preparing bispecific antibodies.

In assay [5] the target is T5, recombinant his-tag human LAG3-ECD …. Put plainly: SPR Biacore T200, capture method as Example 2.7.
For assay [6] the target is unchanged. Put plainly: Biacore, antibody captured, His-tag human LAG3-ECD injected (procedure of Example 2.16(B)). On the procedure:
as §2, §3

Assay [7] deals with T6, recombinant human LAG-3-ECD-human IgG1 fusion protein (human, UniProt P18627 23-450, biotin-labeled in the MHC class II blocking assays).
T6 construct: extracellular domain; also called LAG-3-huFc; LAG-3-ECD-huFc; not shown: human IgG1 Fc
T6 sequence (looked up): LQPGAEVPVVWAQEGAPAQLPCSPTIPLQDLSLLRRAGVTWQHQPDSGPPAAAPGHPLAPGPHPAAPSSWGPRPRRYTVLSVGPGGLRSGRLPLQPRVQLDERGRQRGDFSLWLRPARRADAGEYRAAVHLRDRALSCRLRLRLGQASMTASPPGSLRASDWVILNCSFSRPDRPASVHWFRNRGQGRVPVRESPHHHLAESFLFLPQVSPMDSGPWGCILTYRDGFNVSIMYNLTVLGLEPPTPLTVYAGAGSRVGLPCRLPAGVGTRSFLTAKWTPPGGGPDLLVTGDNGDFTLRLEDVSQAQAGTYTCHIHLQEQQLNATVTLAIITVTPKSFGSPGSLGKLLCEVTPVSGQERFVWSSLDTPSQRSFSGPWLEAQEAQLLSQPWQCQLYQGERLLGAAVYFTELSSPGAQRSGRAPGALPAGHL
Put plainly: ELISA as Example 2.2, coated human LAG3 ECD-Fc. On the procedure: To evaluate the capability of the anti-LAG-3 antibodies to bind to human, rat, and mouse LAG3 the antibodies identified in Example 2.1 were evaluated for their binding property through ELISA. The human, rat and mouse LAG3 ECD-Fc protein were coated to ELISA plate at 1 μg/ml with 100 μl/well. Antibodies from Example 1 were serially diluted with ELISA diluent buffer. […] The resulting plates were washed and then labeled with anti-human IgG(Fab)-HRP antibody. The S31 can only bind to human LAG3. The S27 and T99 can bind to human LAG3 and rat/mouse LAG3 with lower potency. The S119 antibody can bind to human, rat and mouse LAG3 at high potency (FIGS. 22A-22D).

For assay [8], the target named is T4, human LAG3 on cells. Kind of assay: flow cytometry on activated CD4 T cells. On the procedure: as §1
For assay [9], the target named is T4, human LAG3 on cells. Put plainly: flow cytometry (MFI) on activated CD4 T cells, lower panel; EC50 table has no unit, x axis Concentration (nM); Table 31 of the text prints the rounded 0.33. On the procedure: as §1
Assay [10] deals with T4, human LAG3 on cells. Kind of assay: flow cytometry (MFI) on Jurkat-LAG3 cells, upper panel; EC50 table has no unit, x axis Concentration (nM); Table 31 of the text prints the rounded 0.4. On the procedure:
as §1

The target of assay [11] is T5, recombinant his-tag human LAG3-ECD …. Kind of assay: Biacore, antibody captured, His-tag human LAG3-ECD injected (procedure of Example 2.16(B)); column kd(1/s). On the procedure: as §2, §3
Assay [12] addresses T4, human LAG3 on cells. Put plainly: flow cytometry (MFI) on activated CD4 T cells, lower panel; EC50 table has no unit, x axis Concentration (nM); Table 31 of the text prints the rounded 0.39. On the procedure:
as §1

Assay [13] concerns the target T4, human LAG3 on cells. Put plainly: flow cytometry (MFI) on Jurkat-LAG3 cells, upper panel; EC50 table has no unit, x axis Concentration (nM); Table 31 of the text prints the rounded 0.5. On the procedure:
as §1

Assay [14] concerns the target T7, human LAG3-His protein (Sinobio, 16498-H08H) (human, UniProt P18627 23-450).
T7 construct: also called human LAG3 protein; not shown: His tag
T7 sequence (looked up): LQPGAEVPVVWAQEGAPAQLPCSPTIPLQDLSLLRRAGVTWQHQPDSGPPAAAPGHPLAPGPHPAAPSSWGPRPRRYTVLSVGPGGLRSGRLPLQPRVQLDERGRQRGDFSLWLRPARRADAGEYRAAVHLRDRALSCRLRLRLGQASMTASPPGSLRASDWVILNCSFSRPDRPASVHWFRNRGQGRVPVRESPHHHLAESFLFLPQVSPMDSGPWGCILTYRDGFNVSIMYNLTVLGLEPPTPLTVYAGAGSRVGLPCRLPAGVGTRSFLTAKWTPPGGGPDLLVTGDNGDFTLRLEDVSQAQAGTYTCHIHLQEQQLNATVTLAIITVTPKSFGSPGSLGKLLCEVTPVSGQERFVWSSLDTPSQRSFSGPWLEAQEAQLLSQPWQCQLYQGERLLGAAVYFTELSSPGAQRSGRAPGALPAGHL
Kind of assay: ELISA on coated human LAG3-His, panel LAG3. The gist of the method:
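Bispecific antibodies were tested by ELISA on plates coated overnight at 4° C with human LAG3-His protein at 0.5 μg/ml in PBS (100 μl/well), then blocked with 5% BSA. Four-fold antibody dilutions starting from 100 nM were incubated for 1-2 hours at RT. EC50 was read off the binding curve.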

T3 sequence (Q9NZQ7 19-239 limits assumed): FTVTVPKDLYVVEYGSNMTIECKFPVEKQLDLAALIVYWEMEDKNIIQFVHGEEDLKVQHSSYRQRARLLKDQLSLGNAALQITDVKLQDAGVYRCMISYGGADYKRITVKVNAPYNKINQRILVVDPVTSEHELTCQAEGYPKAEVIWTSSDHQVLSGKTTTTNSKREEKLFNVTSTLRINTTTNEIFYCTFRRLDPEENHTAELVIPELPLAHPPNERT
T2 sequence (Q9NZQ7 19-290): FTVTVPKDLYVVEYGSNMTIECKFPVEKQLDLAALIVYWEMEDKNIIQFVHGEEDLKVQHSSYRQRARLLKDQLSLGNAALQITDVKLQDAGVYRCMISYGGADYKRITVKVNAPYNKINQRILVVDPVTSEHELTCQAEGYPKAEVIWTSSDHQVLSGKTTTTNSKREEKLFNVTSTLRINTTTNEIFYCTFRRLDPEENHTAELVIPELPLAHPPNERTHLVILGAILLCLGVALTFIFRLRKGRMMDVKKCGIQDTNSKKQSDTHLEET
T1 sequence (Q9NZQ7 19-239 limits assumed): as the sequence (Q9NZQ7 19-239 limits assumed) above

B1: B6 (antibody, V domains shown)
VH: EVQLVESGGGLVQPGGSLRLSCAASGFTFSSYDMSWVRQAPGKSLEWVATISDAGGYIYYRDSVKGRFTISRDNAKNSLYLQMNSLRDEDTAVYICARELPWRYALDYWGQGTTVTVSS
VL: DIQMTQSPSSLSASVGDRVTITCKASQDVTPAVAWYQQKPGKAPKLLIYSTSSRYTGVPSRFSGSGSGTDFTFTISSLQPEDIATYYCQQHYTTPLTFGQGTKLEIK
notes: also called B6 monoclonal antibody
For the molecule B1, the “EC50 (read off the curve)” value with human PD-L1-Fc protein was approximately 0.2 µg/mL. In [1], this molecule gave an EC50 of 1.2 nM. In assay [2], the Kd was determined as 1.02 nM, the koff is 0.000246 s⁻¹ and the kon is 242000 M⁻¹ s⁻¹.

B2: 147H 3807b (antibody, V domains shown)
VH: EVQLVQSGAEVKKPGASVKVSCKASGYTFTNYWLGWIKQAPGQGLEWIGDIYPGGDYIVYNEKFKGKATLTADTSISTAYMELSRLRSDDTAVYYCARPNLPKDHWGQGTTVTVSS
VL: DIVMTQSPLSLPVTPGEPASISCRSSKSLLHSNAITYLYWYLQKPGQSPQLLIYQVSNLASGVPDRFSGSGSGTDFTLKISRVEAEDVGVYYCAQYLELPWTFGGGTKVEIK
notes: also called B3807b
Regarding B2, the EC50 with human LAG3 on cells [3] was 0.4 nM; in [7], 0.41 nM; with human LAG3 on cells [8], 0.33 nM; in the assay with human LAG3 on cells [9], 0.333 nM; in the assay with human LAG3 on cells [10], 0.39 nM. Moreover, the kon is 3.46e+06 M⁻¹ s⁻¹ in assay [4] and 4e+06 M⁻¹ s⁻¹ in assay [5]. In addition, the results for the Kd in assay [5] and in assay [6] were 0.51 nM and 0.968 nM, respectively. The koff in [5] was found to be 0.002 s⁻¹; in [11], 0.00334 s⁻¹.

B3: 147H 3810 (antibody, V domains shown)
VH: EVQLVQSGAEVKKPGASVKVSCKASGYLFTNYWLGWIKQAPGQGLEWIGDIYPGGDYIVYNEKFKGKATLTADTSISTAYMELSRLRSDDTAVYYCARPNLPKDHWGQGTTVTVSS
VL: DIVMTQSPLSLPVTPGEPASISCRSSKSLLHSNAITYLYWYLQKPGQSPQLLIYQVSNLATGVPDRFSGSGSGTDFTLKISRVEAEDVGVYYCAQYLELPWTFGGGTKVEIK
notes: also called B3810
For the molecule B3, the EC50 was found to be 0.5 nM with human LAG3 on cells [3]; 0.49 nM in assay [7]; 0.39 nM with human LAG3 on cells [8]; 0.391 nM with human LAG3 on cells [12]; 0.492 nM with human LAG3 on cells [13]. Further, in assay [5], the Kd came out at 0.41 nM. Besides, the koff in assay [5] is 0.0019 s⁻¹. The kon in assay [5] stood at 4.7e+06 M⁻¹ s⁻¹.

B4: 147(H3807)xH12 (bispecific antibody, human IgG4 S228P, kappa)
heavy: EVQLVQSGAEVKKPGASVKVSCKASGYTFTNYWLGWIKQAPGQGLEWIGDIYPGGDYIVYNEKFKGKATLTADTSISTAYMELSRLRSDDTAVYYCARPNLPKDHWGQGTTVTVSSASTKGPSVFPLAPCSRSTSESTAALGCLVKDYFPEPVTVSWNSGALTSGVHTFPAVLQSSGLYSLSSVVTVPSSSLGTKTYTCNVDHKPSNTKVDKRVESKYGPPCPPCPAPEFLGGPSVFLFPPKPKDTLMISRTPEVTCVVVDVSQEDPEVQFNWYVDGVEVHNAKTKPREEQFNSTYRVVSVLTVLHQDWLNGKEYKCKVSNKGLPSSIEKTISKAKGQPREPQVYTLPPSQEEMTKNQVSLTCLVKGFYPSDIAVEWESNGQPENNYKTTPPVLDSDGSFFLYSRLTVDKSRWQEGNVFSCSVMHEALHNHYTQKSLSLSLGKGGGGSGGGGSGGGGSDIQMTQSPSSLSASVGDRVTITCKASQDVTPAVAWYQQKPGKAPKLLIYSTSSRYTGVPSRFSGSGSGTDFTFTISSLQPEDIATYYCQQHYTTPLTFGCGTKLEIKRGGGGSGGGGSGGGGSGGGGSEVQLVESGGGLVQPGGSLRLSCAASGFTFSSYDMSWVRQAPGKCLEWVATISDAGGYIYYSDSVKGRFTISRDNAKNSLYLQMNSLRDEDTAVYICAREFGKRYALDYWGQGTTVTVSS
light: DIVMTQSPLSLPVTPGEPASISCRSSKSLLHSQGITYLYWYLQKPGQSPQLLIYQVSNLASGVPDRFSGSGSGTDFTLKISRVEAEDVGVYYCAQYLELPWTFGGGTKVEIKRTVAAPSVFIFPPSDEQLKSGTASVVCLLNNFYPREAKVQWKVDNALQSGNSQESVTEQDSKDSTYSLSSTLTLSKADYEKHKVYACEVTHQGLSSPVTKSFNRGEC
Turning to B4, the “EC50 (read off the curve)” value in [14] was approximately 0.4 nM.
